Data published in the supplement of paper PMC7877785.
± gives the uncertainty stated by the source.

Experiment: self-splicing fitness, log relative to wild type (ln ratio); higher = more splicing; Tetrahymena group I intron in knt gene, E. coli kanamycin selection, DiMSum; sequences stand for … in CUCUCU…GGAGGGAAAAGUUAUCAGGCAUGCACCUGGUAGCUAGUCUUUAAACCAAUAGAUUGCAUCGGUUUAAAAGGCAAGACCGUCAAAUUGCGGGAAAGGGGUCAACAGCCGUUCAGUACCAAGUCUCAGGGGAAACUUUGAGAUGGCCUUGCAAAGGGUAUGGUAAUAAGCUGACGGACAUGGUCCUAACCACGCAGCCAAGUCCUAAGUCAACAGAUCUUCUGUUGAUAUGGAUGCAGUUCACAGACUAAAUGUCGGUCGGGGAAGAUGUAUUCUUCUCAUAAGAUAUAGUCGGACCUCUCCUUAAUGGGAGCUAGCGGAUGAAGUGAUGCAACACUGGAGCCGCUGGGAACUAAUUUGUAUGCGAAAGUAUAUUGAUUAGUUUUGGAGUACUCGUGGUCG
In short: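 A randomised library covering all eight P1ex-region intron nucleotides was built with the intron in the knt kanamycin-resistance gene on pET-22b(+) and held in E. coli BL21(DE3). Cells were grown overnight at 37°C or 30°C on LB agar, with or without 25 μg/mL kanamycin, plus 100 μg/mL carbenicillin, 50 μM IPTG and 0.2% rhamnose, and pooled colonies were amplicon-sequenced on an Illumina HiSeq 2500. DiMSum fitness is the error-weighted combination of wild-type-normalised replicate fold changes, kanamycin versus none.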

Row | Sequence | self-splicing fitness (ln) (30 °C) | self-splicing fitness (ln) (37 °C)
1 | CUCCAGCAAUAUUACGAAGC | -3.5 ± 0.23 | -2.6 ± 0.32
2 | CUCCAGCAAUAUUACGACUC | -3.66 ± 0.24 | -2.24 ± 0.38
3 | CUCCAGCAAUAUUACGAGGG | -3.65 ± 0.17 | -2.89 ± 0.25
4 | CUCCAGCAAUAUUACGAUCG | -1.49 ± 0.063 | -0.922 ± 0.075
5 | CUCCAGCAAUAUUACGAUGG | -4.58 ± 0.32 | -3.19 ± 0.26
6 | CUCCAGCAAUAUUACGCAAG | -3.52 ± 0.26 | -1.41 ± 0.18
7 | CUCCAGCAAUAUUACGCACU | -2.56 ± 0.14 | -3.09 ± 0.32
8 | CUCCAGCAAUAUUACGCAGC | -2.51 ± 0.15 | -2.25 ± 0.49
9 | CUCCAGCAAUAUUACGCAUC | -4.12 ± 0.42 | -2.4 ± 0.37
10 | CUCCAGCAAUAUUACGCGCC | -2.7 ± 0.29 | -2.05 ± 0.38
11 | CUCCAGCAAUAUUACGCGUA | – | -2.56 ± 0.25
12 | CUCCAGCAAUAUUACGCGUC | -3.46 ± 0.28 | –
13 | CUCCAGCAAUAUUACGCUUU | -2.78 ± 0.19 | -2.8 ± 0.26
14 | CUCCAGCAAUAUUACGGAAU | -4.1 ± 0.21 | -2.27 ± 0.16
15 | CUCCAGCAAUAUUACGGACA | -0.816 ± 0.14 | -0.868 ± 0.15
16 | CUCCAGCAAUAUUACGGCUG | -2.12 ± 0.22 | -2.99 ± 0.4
17 | CUCCAGCAAUAUUACGGGAC | -2.79 ± 0.11 | -2.17 ± 0.14
18 | CUCCAGCAAUAUUACGGUCU | -4 ± 0.23 | -2.31 ± 0.2
19 | CUCCAGCAAUAUUACGUACA | -3.85 ± 0.19 | -2.08 ± 0.2

Row | Sequence | self-splicing fitness (ln) (30 °C) | self-splicing fitness (ln) (37 °C)
20 | CUCCAGCAAUAUUACGUAGC | -2.49 ± 0.2 | -2.36 ± 0.25
21 | CUCCAGCAAUAUUACGUCGC | -4.34 ± 0.23 | -2.96 ± 0.23
22 | CUCCAGCAAUAUUACGUGGA | -3.5 ± 0.18 | -2.7 ± 0.16
23 | CUCCAGCAAUAUUACGUUGC | -3.98 ± 0.27 | -1.77 ± 0.15
24 | CUCGAGCAAUAUUACGAACU | -3.1 ± 0.26 | -2.8 ± 0.43
25 | CUCGAGCAAUAUUACGAAGC | -3.7 ± 0.16 | -3.28 ± 0.21
26 | CUCGAGCAAUAUUACGAUGG | -1.83 ± 0.083 | -1.61 ± 0.1
27 | CUCGAGCAAUAUUACGAUUG | -2.53 ± 0.34 | -2.04 ± 0.3
28 | CUCGAGCAAUAUUACGCAUA | -2.34 ± 0.26 | –
29 | CUCGAGCAAUAUUACGCGAU | -3.25 ± 0.17 | -2.96 ± 0.23
30 | CUCGAGCAAUAUUACGCGUG | -3.43 ± 0.26 | -2.03 ± 0.19
31 | CUCGAGCAAUAUUACGCGUU | -3.72 ± 0.31 | -0.305 ± 0.2
32 | CUCGAGCAAUAUUACGCUAU | -2.92 ± 0.26 | -2.8 ± 0.26
33 | CUCGAGCAAUAUUACGGAUC | – | 0.135 ± 0.27
34 | CUCGAGCAAUAUUACGGAUU | -3.59 ± 0.19 | -2.98 ± 0.27
35 | CUCGAGCAAUAUUACGGUGA | -2.66 ± 0.19 | -0.793 ± 0.16
36 | CUCGAGCAAUAUUACGUAUC | -4.31 ± 0.3 | -2.78 ± 0.29
37 | CUCGAGCAAUAUUACGUCAC | -3.1 ± 0.3 | -1.11 ± 0.22
38 | CUCGAGCAAUAUUACGUCGA | -3.29 ± 0.28 | -1.67 ± 0.24
